T1: FcγRIIa R (FcγRIIa allotype with Arg at position 131), extracellular domain with C-terminal His tag (human, UniProt P12318 34-217)
T1 construct: extracellular domain; made in FreeStyle293 cells; analyte in the Biacore assay; also called FcγRIIa type R; 2aR
T1 sequence (looked up): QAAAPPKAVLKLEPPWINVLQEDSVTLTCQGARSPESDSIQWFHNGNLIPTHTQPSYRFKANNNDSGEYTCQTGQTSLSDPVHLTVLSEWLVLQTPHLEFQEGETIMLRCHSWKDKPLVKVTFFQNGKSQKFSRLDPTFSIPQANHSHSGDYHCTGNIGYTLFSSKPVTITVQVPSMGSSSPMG

T2: FcγRIIb, extracellular domain with C-terminal His tag (human, UniProt P31994 43-217)
T2 construct: extracellular domain; made in FreeStyle293 cells; analyte in the Biacore assay; also called 2b; FcgRIIb
T2 sequence (looked up): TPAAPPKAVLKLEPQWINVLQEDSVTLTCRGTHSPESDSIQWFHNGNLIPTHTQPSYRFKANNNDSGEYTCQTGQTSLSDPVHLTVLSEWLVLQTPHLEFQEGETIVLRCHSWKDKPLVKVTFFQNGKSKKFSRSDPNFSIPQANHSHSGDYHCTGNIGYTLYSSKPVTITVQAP

T3: FcγRIIb extracellular domain with C-terminal His tag (human, UniProt P31994 43-217)
T3 construct: extracellular domain; Soluble receptor expressed in FreeStyle293 cells and used as analyte in Biacore; also called FcgRIIb; 2b; not shown: His tag attached to the C terminus
T3 sequence (looked up): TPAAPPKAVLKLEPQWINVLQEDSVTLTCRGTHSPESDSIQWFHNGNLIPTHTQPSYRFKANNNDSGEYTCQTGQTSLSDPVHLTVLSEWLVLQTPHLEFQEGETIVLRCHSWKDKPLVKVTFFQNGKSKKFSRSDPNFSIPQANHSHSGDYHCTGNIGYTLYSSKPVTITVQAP


Key:
[1] = target: T1, FcγRIIa R (FcγRIIa allotype with Arg at …); assay: SPR (Biacore); He/Con_2aR divided by He/Con_2b, binding to FcγRIIa R against binding to FcγRIIb
Protocol: (§1) The heterodimerized antibodies He Abs in which one of the H chains was introduced with an alteration were assayed for their binding activities to each activating FcγR and inhibitory FcγR according to the method described in Example 4. […] The activating FcγRs in FIGS. 26, 27, 28, and 29 are FcγRIa, FcγRIIa (R), FcγRIIa (H), and FcγRIIIa, respectively.
(§2) Analysis of interaction between objective antibody and the FcγR was carried out using Biacore T100 (GE Healthcare). HBS-EP+ (GE Healthcare) was used as the running buffer, and the measurement temperature was set to 25° C. Chips produced by immobilizing the antigen peptide by the amine coupling method to a Series S Sencor Chip CM5 (GE Healthcare), or alternatively, chips produced by allowing preliminarily biotinylated antigen peptides to interact with and immobilize onto a Series S Sensor Chip SA (certified) (GE Healthcare) were used. Antibodies of interest were captured onto an antigen peptide-immobilized chip, and allowed to interact to each FcγR diluted with running buffer. To regenerate and repeatedly use the chip, the antibodies captured on the chip were washed off by reacting 10 mM glycine-HCl, pH 1.5.

[2] = target: T2, FcγRIIb, extracellular domain with …; assay: SPR (Biacore), antibody captured, FcγR analyte; vs GpH7-A5/GpH7-B3/GpL16-k0 = 100
[3] = target: T1, FcγRIIa R (FcγRIIa allotype with Arg at …); assay: as above
[4] = target: T3, FcγRIIb extracellular domain with …; assay: SPR (Biacore), antibody captured, FcγR as analyte; binding activity relative to control heterodimerized antibody
Protocol: as §1, §2

[5] = target: T4, FcγRIIIa extracellular domain with C-terminal His tag (human, UniProt P08637 17-208); assay: as above
T4 construct: extracellular domain; also called FcgRIIIa; 3a; not shown: His tag attached to the C terminus
Protocol: as §1, §2

[6] = target: T4, FcγRIIIa extracellular domain with …; assay: SPR (Biacore); He/Con_3a divided by He/Con_2b (FcγRIIIa over FcγRIIb)
Protocol: as §1, §2

T4 sequence (P08637 17-208): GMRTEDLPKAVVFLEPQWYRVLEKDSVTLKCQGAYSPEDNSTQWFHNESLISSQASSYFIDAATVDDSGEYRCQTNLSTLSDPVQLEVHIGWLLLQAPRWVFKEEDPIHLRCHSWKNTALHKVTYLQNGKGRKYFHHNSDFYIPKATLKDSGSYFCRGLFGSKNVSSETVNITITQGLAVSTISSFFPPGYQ

| He_2aR/2b (IIaR/IIb) [1] | He/Con_2b [2] | He/Con_2aR [3] | He/Con_2b [4] | He/Con_3a [5] | He_3a/2b [6] | Binder |
| --- | --- | --- | --- | --- | --- | --- |
| 1.32 ratio | 42.6 relative (HeCon Ab = 100) | 56.2 relative (HeCon Ab = 100) | – | – | – | GpH7-A5/GpH7-B3 variant L235_19Q/GpL16-k0 (antibody, human IgG1, kappa, heterodimerized IgG1, mutation in one H chain only; also called He Ab) heavy 1: not shown heavy 2: not shown light: DIVMTQSPLSLPVTPGEPASISCQASESLVHSNRNTYLHWYLQKPGQSPQLLIYKVSNRFSGVPDRFSGSGSGTDFTLKISRVEAEDVGVYYCSQNTHVPPTFGQGTKVEIERTVAAPSVFIFPPSDEQLKSGTASVVCLLNNFYPREAKVQWKVDNALQSGNSQESVTEQDSKDSTYSLSSTLTLSKADYEKHKVYACEVTHQGLSSPVTKSFNRGEC |
| – | – | – | 30.5 % of GpH7-A5/GpH7-B3/GpL16-k0 (=100) | 38.5 % of GpH7-A5/GpH7-B3/GpL16-k0 (=100) | 1.26 ratio | GpH7-A5/GpH7-B3 variant D270_01G/GpL16-k0 (antibody, human IgG1, kappa, Heterodimerized anti-glypican-3 IgG1 with the alteration in only one H chain; also called He Ab) heavy 1: not shown heavy 2: not shown light: DIVMTQSPLSLPVTPGEPASISCQASESLVHSNRNTYLHWYLQKPGQSPQLLIYKVSNRFSGVPDRFSGSGSGTDFTLKISRVEAEDVGVYYCSQNTHVPPTFGQGTKVEIERTVAAPSVFIFPPSDEQLKSGTASVVCLLNNFYPREAKVQWKVDNALQSGNSQESVTEQDSKDSTYSLSSTLTLSKADYEKHKVYACEVTHQGLSSPVTKSFNRGEC |
| – | – | – | 44.9 % of GpH7-A5/GpH7-B3/GpL16-k0 (=100) | 54.5 % of GpH7-A5/GpH7-B3/GpL16-k0 (=100) | 1.22 ratio | GpH7-A5/GpH7-B3 variant D270_15Y/GpL16-k0 (antibody, human IgG1, kappa, Heterodimerized anti-glypican-3 IgG1 with the alteration in only one H chain; also called He Ab) heavy 1: not shown heavy 2: not shown light: DIVMTQSPLSLPVTPGEPASISCQASESLVHSNRNTYLHWYLQKPGQSPQLLIYKVSNRFSGVPDRFSGSGSGTDFTLKISRVEAEDVGVYYCSQNTHVPPTFGQGTKVEIERTVAAPSVFIFPPSDEQLKSGTASVVCLLNNFYPREAKVQWKVDNALQSGNSQESVTEQDSKDSTYSLSSTLTLSKADYEKHKVYACEVTHQGLSSPVTKSFNRGEC |
| – | – | – | 46.7 % of GpH7-A5/GpH7-B3/GpL16-k0 (=100) | 58.5 % of GpH7-A5/GpH7-B3/GpL16-k0 (=100) | 1.25 ratio | GpH7-A5/GpH7-B3 variant E269_06M/GpL16-k0 (antibody, human IgG1, kappa, Heterodimerized anti-glypican-3 IgG1 with the alteration in only one H chain; also called He Ab) heavy 1: not shown heavy 2: not shown light: DIVMTQSPLSLPVTPGEPASISCQASESLVHSNRNTYLHWYLQKPGQSPQLLIYKVSNRFSGVPDRFSGSGSGTDFTLKISRVEAEDVGVYYCSQNTHVPPTFGQGTKVEIERTVAAPSVFIFPPSDEQLKSGTASVVCLLNNFYPREAKVQWKVDNALQSGNSQESVTEQDSKDSTYSLSSTLTLSKADYEKHKVYACEVTHQGLSSPVTKSFNRGEC |
| – | – | – | 48.2 % of GpH7-A5/GpH7-B3/GpL16-k0 (=100) | 66.3 % of GpH7-A5/GpH7-B3/GpL16-k0 (=100) | 1.38 ratio | GpH7-A5/GpH7-B3 variant D270_06M/GpL16-k0 (antibody, human IgG1, kappa, Heterodimerized anti-glypican-3 IgG1 with the alteration in only one H chain; also called He Ab) heavy 1: not shown heavy 2: not shown light: DIVMTQSPLSLPVTPGEPASISCQASESLVHSNRNTYLHWYLQKPGQSPQLLIYKVSNRFSGVPDRFSGSGSGTDFTLKISRVEAEDVGVYYCSQNTHVPPTFGQGTKVEIERTVAAPSVFIFPPSDEQLKSGTASVVCLLNNFYPREAKVQWKVDNALQSGNSQESVTEQDSKDSTYSLSSTLTLSKADYEKHKVYACEVTHQGLSSPVTKSFNRGEC |
| – | – | – | 18.3 % of GpH7-A5/GpH7-B3/GpL16-k0 (=100) | 28.8 % of GpH7-A5/GpH7-B3/GpL16-k0 (=100) | 1.58 ratio | GpH7-A5/GpH7-B3 variant D270_12R/GpL16-k0 (antibody, human IgG1, kappa, Heterodimerized anti-glypican-3 IgG1 with the alteration in only one H chain; also called He Ab) heavy 1: not shown heavy 2: not shown light: DIVMTQSPLSLPVTPGEPASISCQASESLVHSNRNTYLHWYLQKPGQSPQLLIYKVSNRFSGVPDRFSGSGSGTDFTLKISRVEAEDVGVYYCSQNTHVPPTFGQGTKVEIERTVAAPSVFIFPPSDEQLKSGTASVVCLLNNFYPREAKVQWKVDNALQSGNSQESVTEQDSKDSTYSLSSTLTLSKADYEKHKVYACEVTHQGLSSPVTKSFNRGEC |
| – | – | – | 20.3 % of GpH7-A5/GpH7-B3/GpL16-k0 (=100) | 41 % of GpH7-A5/GpH7-B3/GpL16-k0 (=100) | 2.02 ratio | GpH7-A5/GpH7-B3 variant D270_11K/GpL16-k0 (antibody, human IgG1, kappa, Heterodimerized anti-glypican-3 IgG1 with the alteration in only one H chain; also called He Ab) heavy 1: not shown heavy 2: not shown light: DIVMTQSPLSLPVTPGEPASISCQASESLVHSNRNTYLHWYLQKPGQSPQLLIYKVSNRFSGVPDRFSGSGSGTDFTLKISRVEAEDVGVYYCSQNTHVPPTFGQGTKVEIERTVAAPSVFIFPPSDEQLKSGTASVVCLLNNFYPREAKVQWKVDNALQSGNSQESVTEQDSKDSTYSLSSTLTLSKADYEKHKVYACEVTHQGLSSPVTKSFNRGEC |

Reference: patent publication US20150344570A1 (published 2015)
